Test results: IntAct's records for PubMed 29039417

B1: Protein PTHB1 (Homo sapiens), Q3SYG4 (parent)
chain: MSLFKARDWWSTILGDKEEFDQGCLCLANVDNSGNGQDKIIVGSFMGYLRIFSPHPAKTGDGAQAEDLLLEVDLRDPVLQVEVGKFVSGTEMLHLAVLHSRKLCVYSVSGTLGNVEHGNQCQMKLMYEHNLQRTACNMTYGSFGGVKGRDLICIQSMDGMLMVFEQESYAFGRFLPGFLLPGPLAYSSRTDSFLTVSSCQQVESYKYQVLAFATDADKRQETEQQKLGSGKRLVVDWTLNIGEQALDICIVSFNQSASSVFVLGERNFFCLKDNGQIRFMKKLDWSPSCFLPYCSVSEGTINTLIGNHNNMLHIYQDVTLKWATQLPHIPVAVRVGCLHDLKGVIVTLSDDGHLQCSYLGTDPSLFQAPNVQSRELNYDELDVEMKELQKIIKDVNKSQGVWPMTEREDDLNVSVVVSPNFDSVSQATDVEVGTDLVPSVTVKVTLQNRVILQKAKLSVYVQPPLELTCDQFTFEFMTPDLTRTVSFSVYLKRSYTPSELEGNAVVSYSRPTDRNPDGIPRVIQCKFRLPLKLICLPGQPSKTASHKITIDTNKSPVSLLSLFPGFASQSDDDQVNVMGFHFLGGARITVLASKTSQRYRIQSEQFEDLWLITNELILRLQEYFEKQGVKDFACSFSGSIPLQEYFELIDHHFELRINGEKLEELLSERAVQFRAIQRRLLARFKDKTPAPLQHLDTLLDGTYKQVIALADAVEENQGNLFQSFTRLKSATHLVILLIALWQKLSADQVAILEAAFLPLQEDTQELGWEETVDAAISHLLKTCLSKSSKEQALNLNSQLNIPKDTSQLKKHITLLCDRLSKGGRLCLSTDAAAPQTMVMPGGCTTIPESDLEERSVEQDSTELFTNHRHLTAETPRPEVSPLQGVSE
partner: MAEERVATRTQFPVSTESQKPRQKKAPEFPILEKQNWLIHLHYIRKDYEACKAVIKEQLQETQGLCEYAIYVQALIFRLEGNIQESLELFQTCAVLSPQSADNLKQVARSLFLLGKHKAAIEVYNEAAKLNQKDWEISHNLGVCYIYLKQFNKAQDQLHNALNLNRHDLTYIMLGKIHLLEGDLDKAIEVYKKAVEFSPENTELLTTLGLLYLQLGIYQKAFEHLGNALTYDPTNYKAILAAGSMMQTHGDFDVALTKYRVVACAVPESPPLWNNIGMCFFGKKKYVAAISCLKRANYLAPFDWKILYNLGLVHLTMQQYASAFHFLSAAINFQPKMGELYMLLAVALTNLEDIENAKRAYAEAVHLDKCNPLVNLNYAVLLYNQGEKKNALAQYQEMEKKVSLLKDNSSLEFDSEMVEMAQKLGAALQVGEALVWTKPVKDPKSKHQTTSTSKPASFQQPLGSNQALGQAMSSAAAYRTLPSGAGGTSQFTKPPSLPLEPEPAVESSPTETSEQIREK
B2: BBSome complex member BBS2 (Homo sapiens), Q9BXC9 (parent)
chain: MLLPVFTLKLRHKISPRMVAIGRYDGTHPCLAAATQTGKVFIHNPHTRNQHVSASRVFQSPLESDVSLLSINQAVSCLTAGVLNPELGYDALLVGTQTNLLAYDVYNNSDLFYREVADGANAIVLGTLGDISSPLAIIGGNCALQGFNHEGSDLFWTVTGDNVNSLALCDFDGDGKKELLVGSEDFDIRVFKEDEIVAEMTETEIVTSLCPMYGSRFGYALSNGTVGVYDKTSRYWRIKSKNHAMSIHAFDLNSDGVNELITGWSNGKVDARSDRTGEVIFKDNFSSAIAGVVEGDYRMDGHIQLICCSVDGEIRGYLPGTAEMRGNLMDTSAEQDLIRELSQKKQNLLLELRNYEENAKAELASPLNEADGHRGIIPANTRLHTTLSVSLGNETQTAHTELRISTSNDTIIRAVLIFAEGIFTGESHVVHPSIHNLSSSICIPIVPPKDVPVDLHLKAFVGYRSSTQFHVFESTRQLPRFSMYALTSLDPASEPISYVNFTIAERAQRVVVWLGQNFLLPEDTHIQNAPFQVCFTSLRNGGHLHIKIKLSGEITINTDDIDLAGDIIQSMASFFAIEDLQVEADFPVYFEELRKVLVKVDEYHSVHQKLSADMADHSNLIRSLLVGAEDARLMRDMKTMKSRYMELYDLNRDLLNGYKIRCNNHTELLGNLKAVNQAIQRAGRLRVGKPKNQVITACRDAIRSNNINTLFKIMRVGTASS
partner: B1 chain

Variants of: B1
Conditions: with bbs4_human BBS4, Q96RK4

Variant | effect of a mutation on the interaction
S860K | with no effect
R854A | with no effect
R854E | with no effect
R854K | with no effect
T874K | with no effect
T874E | with no effect
T874A | with no effect
S886A | with no effect
S886K | with no effect
S886E | with no effect
R876E | with no effect
R876K | with no effect
R876A | with no effect

Variants of: B2
Conditions: with pthb1_human BBS9, Q3SYG4

Variant | effect of a mutation on the interaction
E340A | with no effect
E340K | with no effect
L328K | with no effect
L328A | with no effect
L328E | with no effect
L349K | with no effect
L349E | with no effect
L349A | with no effect
L348K | with no effect
L348A | with no effect
L348E | with no effect
Q335E | with no effect
Q335A | with no effect
Q335K | with no effect
T331A | with no effect
T331E | with no effect
T331K | with no effect
L337K | with no effect
L337A | with no effect
L337E | with no effect
G326E | with no effect
G326A | with no effect
G326K | with no effect
L341E | with no effect
L341A | with no effect

Variant | effect of a mutation on the interaction
L341K | with no effect
R339K | with no effect
R339A | with no effect
R339E | with no effect
Q346A | with no effect
Q346E | with no effect
Q346K | with no effect
N347A | with no effect
N347E | with no effect
N347K | with no effect
S332A | with no effect
S332K | with no effect
S332E | with no effect
S342K | with no effect
S342A | with no effect
S342E | with no effect
D336A | with no effect
D336E | with no effect
D336K | with no effect
Q343A | with no effect
Q343K | with no effect
Q343E | with no effect
A333E | with no effect
A333K | with no effect
I338K | with no effect

Variant | effect of a mutation on the interaction
I338A | with no effect
I338E | with no effect
K345A | with no effect
K345E | with no effect
M329A | with no effect
M329K | with no effect
M329E | with no effect
E334A | with no effect
E334K | with no effect
G688K | with no effect
K344E | with no effect
K344A | with no effect
D330A | with no effect
D330K | with no effect
D330E | with no effect
L350E | with no effect
L350A | with no effect
R325A | with no effect
R325K | with no effect
R325E | with no effect
N327A | with no effect
N327E | with no effect
N327K | with no effect

Variants of: B2
Conditions: with pthb1_human BBS9, Q3SYG4
Remark: another data set of the same source

Variant | effect of a mutation on the interaction
I568E | disrupting interaction strength
S365R | disrupting interaction strength
L455E | disrupting interaction strength
W513E | disrupting interaction strength
G688K | disrupting interaction strength

Variants of: B2
Conditions: with pthb1_human BBS9, Q3SYG4
Remark: another data set of the same source

Variant | effect of a mutation on the interaction
L455E | with no effect
W513E | with no effect
